Series [1] relates to OVA sensitized rat model. Nature of the series: Dose responsiveness of budesonide alone in OVA sensitized rat model. The class given is in vivo. The conditions noted are these: doses 0.01, 0.1, 1, 10 mg/kg to bronchus 1 hour before 4th and 5th OVA exposure. The procedure: Dose responsiveness of budesonide alone in an OVA sensitized rat model was determined.
There were four doses for determination, i.e., 0.01 mg/kg, 0.1 mg/kg, 1 mg/kg, and 10 mg/kg.
As a test system, a male BN rat was used. For OVA sensitization, 1 mL of Alum containing 1 mg/mL OVA was administered intraperitoneally. After the sensitization, physiological saline containing 10 mg/mL OVA was used for inhalation exposure, 5 times every 24 hours, by using a nebulizer. The test substance was administered to a bronchus 1 hour before the 4th and 5th inhalation exposure of OVA.
On Hour 24 after the final exposure, 2 mL of PBS containing 0.1% BSA (heated to 37° C.) was administered under pentobarbital anesthesia to a bronchus followed by recovery. This procedure was repeated 5 times to give bronchoalveolar lavage fluid (BALF).
BALF was centrifuged for 3 minutes at 200×g and room temperature. The supernatant was discarded, and the pellet was re-suspended in PBS (500 μL, heated to 37° C.) containing 0.1% BSA. Subsequently, a smear sample of the BALF was prepared followed by Diff-Quik staining. According to cell fractionation, ratio of eosinophil in white blood cells was calculated. According to integration with the number of white blood cells in BALF, the number of […] in BALF was calculated (number of white blood cells was measured by using blood cell counting chamber).

A short description of series [2]: in vivo. Conditions: BN/CrlCrlj, rat, in vivo. The procedure:
As a test substance, the compound is was used, and it was used after being dissolved in phosphate buffered saline such that the pharmaceutical concentration is 3 mg/mL.
For the test, a BN/CrlCrlj rat (Charles River Laboratories International, Inc., 5-week old) was used. It was placed on its back and fixed under general anesthesia, and by using a sonde for intratracheal administration (MicroSprayer (registered trademark) Aerosolizer Model IA-1B, manufactured by Penn-Century), intratracheal administration was performed with volume of 100 μL. As general anesthesia, inhalation of isoflurane (concentration of 3.0% and flow rate of 2.0 L/min) was employed.
Weight of the pulmonary tissue was measured and, after being added with an aqueous solution of ammonium formic acid (pH 6.0):methanol (3:2, v/v) at ratio of 40× (1 g: 40 mL), it was homogenated for about 1 minute under ice cooling by using a homogenizer. […] Meanwhile, the measurement was made with n=3 for each evaluation time point.
Each parameter of pharmacokinetics was calculated from a change in average content in pulmonary tissue. If there was an animal showing the measurement value of less than the lower limit of quantification, the average content in pulmonary tissue was calculated by substituting the value of 0 (zero) for it. The time t (hr) for calculating AUC0-t was the final time point at which the quantification can be made. Meanwhile, for calculation of the parameters of pharmacokinetics, non-compartmental analysis model analysis by WinNonlin Professional (registered trademark) Ver 5.2.1 was used. […] The results are shown in FIG. 2 and the following table.
The compounds vb obtained from Example 5 was evaluated in the same manner as the method described in (Test example B1) in terms of the persistent property of the pharmaceutical in a pulmonary tissue of a normal rat.
As a comparative control group, budesonide alone in the same amount as the compound vb, and a mixture of budesonide and chondroitin sulfate in the same amount as the compound vb were administered. Meanwhile, in the present measurement system, the lower detection limit of budesonide was 1 ng/mL. Meanwhile, the evaluation time points include three points, i.e., Hour 4, 24, and 72.

Series [3] has as its system mouse model having antigen-induced rhinitis. Nature of the series: Mouse model having antigen-induced rhinitis, cough number. Format: in vivo. The conditions noted are these: single intranasal administration 20 μL. The procedure: As a negative control, phosphate buffered saline was used. As a comparative control, 4 mg/mL budesonide suspension was used. […] From Day 1 after the final nasal cavity sensitization—induction, 20 μL of ovalbumin physiological saline (40 mg/mL) was intranasally administered with 24 hour interval to induce a rhinitis reaction. The induction of the rhinitis reaction was performed 8 times in total for 8 days. […] The phosphate buffered saline, aqueous solution of the compound va, and budesonide suspension were administered only once on the day of inducing initial rhinitis reaction, and 1 hour before administering physiological saline containing ovalbumin. Meanwhile, the test was basically performed with n=6. From the first day to Day 7 after inducing initial rhinitis reaction, number of coughs during 10 minutes after the administration of ovalbumin-containing physiological saline was measured.

Series [4] in a line: Drug dissociation test: polysaccharide derivative in buffer solution, 36°C, 1 week, HPLC. The class given is physicochemical. The method, then: In the examples relating to drug dissociation test, the drug dissociation ratio was evaluated as described below.
Sodium dihydrogen phosphate dihydrate (780 mg (5.0 mmol)) was dissolved in 500 mL of distilled water to give a liquid A. Separately, disodium hydrogen phosphate dodecahydrate (1.79 g (5.0 mmol)) was dissolved in 500 mL of distilled water to give a liquid B. By mixing the liquid A and liquid B at ratio of 2:3, a phosphate buffer solution of pH 7.5 was prepared.
0.62 g (10 mmol) of boric acid and 0.75 g (10 mmol) of potassium chloride were weighed and dissolved in 500 mL of distilled water to give a liquid C. Separately, by diluting 0.1 N sodium hydroxide solution with distilled water (×10 dilution), a liquid D was prepared.
50 mL of the liquid C and 7 mL of the liquid D were added to a 100 mL mess flask, and according to dilution to 100 mL with distilled water, a borate buffer solution of pH 8.0 was prepared. Furthermore, 50 mL of the liquid C and 40 mL of the liquid D were added to a 100 mL mess flask, and according to mess-up to 100 mL with distilled water, a borate buffer solution of pH 9.0 was prepared.
Each polysaccharide derivative obtained from above was dissolved in a buffer solution at each pH so as to have a concentration of 5 mg/10 mL, and heated for 1 week in an incubator at 36° C. Then, the drug dissociation ratio during the incubation was evaluated every 24 hours by liquid chromatography (HPLC).
The evaluation was performed by measuring the ratio between the drug amount remained in a polysaccharide derivative and the dissociated drug amount according to use of a size exclusion chromatography column (manufactured by TOSOH, TSKgel α-6000, 7.8 mmI.D.×30 cm).
Detailed conditions for the liquid chromatography are as follows.
Analysis time: 40 minutes
Solution for elution: acetonitrile (for HPLC):physiological saline=1:2
Detector: UV detector (240 nm)

For series [5], the system named is rat antigen-induced asthma model. The series is described as follows: Rat antigen-induced asthma model, eosinophils in bronchoalveolar lavage fluid. Format: in vivo. The method, then: Intraperitoneal administration of 1 mL of aluminum hydroxide gel containing ovalbumin (1 mg/mL) was performed 3 times with one day interval. 14 Days after performing the first sensitization, intraperitoneal administration of 1 mL of aluminum hydroxide gel containing ovalbumin (1 mg/mL) was performed again followed by the second sensitization. 7 Days after the second sensitization, inhalation exposure of physiological saline (10 mg/mL) containing ovalbumin was performed by using a nebulizer five times with one day interval in order to induce asthma.
The 0.6 mg/mL prednisolone suspension was orally administered by using a sonde for oral administration under no anesthesia to have prednisolone amount of 3 mg/kg.
Meanwhile, the test was performed with n=6 to 12.
24 Hours after the fifth exposure, phosphate buffered saline (2 mL) containing 0.1% bovine serum albumin heated to 37° C. was injected to a bronchus of a rat under pentobarbital anesthesia and collected thereafter. This procedure was repeated 5 times to have bronchoalveolar lavage fluid. The bronchoalveolar lavage fluid was centrifuged for 3 minutes at 200×g and room temperature. The supernatant was discarded, and the pellet was re-suspended in phosphate buffered saline (500 μL) containing 0.1% bovine serum albumin.
Subsequently, a smear sample of the suspension was prepared followed by Diff-Quik staining. According to cell fractionation, ratio of eosinophil in white blood cells was calculated. According to integration with the number of white blood cells in bronchoalveolar lavage fluid, the number of […] in bronchoalveolar lavage fluid was calculated. Meanwhile, the number of white blood cells in bronchoalveolar lavage fluid was measured by using a blood cell counting chamber. The results are shown in FIG. 4 and the following table.
Dose responsiveness of the compound va in an OVA sensitized rat model was determined in the same manner as (Test example B2).
There were three doses for determination, i.e., 0.35 mg/kg, 3.5 mg/kg, and 35 mg/kg, such that the budesonide amount for administration is 0.1 mg/kg, 1 mg/kg, or 10 mg/kg.

The subject of series [6] is mouse antigen-induced airway hypersensitivity model. The series is described as follows: Mouse antigen-induced airway hypersensitivity model (AHR, Penh, PC100). The class given is in vivo. Conditions: single intratracheal administration 40 μL, 1 week before the evaluation. The method, then:
For the evaluation, BALB/cCrSlc (Japan SLC, Inc., 11-week old) was used. […] Intratracheal administration (volume: 40 μL) of the budesonide suspension, mixture of budesonide and chondroitin sulfate, and an aqueous solution of the compound va was performed by using a glass microsyringe (Ito Micro Syringe, manufactured by ITO SEISAKUSHO CO., LTD.) after fixing the mouse on its back under general anesthesia. […] The administration was performed only once, and it was performed 6 days after the second sensitization. Meanwhile, the test was performed with n=6. Airway hyper responsiveness (AHR) evaluation was performed as described below. On Day 13 after the second sensitization, the mouse was forced to inhale metacholine (hereinbelow, MCh) of 0, 5, 10 and 20 mM, and the airway resistance parameter (Penh) at 3 minutes after the inhalation of metacholine with different concentrations was measured by a device for measuring unrestrained respiratory function (manufactured by Buxco Research System). AUC value of the Penh value was measured, and a graph of MCh concentration vs. AUC was established.

Regarding `CCCC1O[C@@H]2C[C@H]3[C@@H]4CCC5=CC(=O)C=C[C@]5(C)[C@H]4[C@@H](O)C[C@]3(C)[C@]2(C(=O)CO)O1` (some centres unmarked) [budesonide], the “administration amount at which eosinophil inhibitory activity was shown” value in series [1] is listed as no less than 0.1 mg/kg. In series [2], this compound showed a concentration at 4 h of 471 ng/g, a concentration at 24 h of 0.3 ng/g and a concentration at 72 h of 0.1 ng/g.
Regarding “Chondroitin Sulfate Introduced with 21-β-Alanyl-Budesonide (25 kDa) [Compound va]”, the “change in average cough number Day 1 to Day 7 and total cough number during 8 days” value in series [3] is given as “exhibited an inhibition”. Moreover, the “Dissociation ratio (%/day)” value in series [4] (pH 7.4, 36°C) is on record as 0.8 %/day; in series [4] (pH 8.0, 36°C) it was 2.5 %/day. The drug dissociation ratio in series [4] (pH 7.4, 36°C, day 0) was determined as 0.0%; in series [4] (pH 7.4, 36°C, day 1), 0.4%; in series [4] (pH 7.4, 36°C, day 2), 1.0%; in series [4] (pH 7.4, 36°C, day 3) it was 1.8%; in series [4] (pH 7.4, 36°C, day 4) it was 3.1%; in series [4] (pH 7.4, 36°C, day 5) it was 3.8%. Besides, the drug dissociation ratio in series [4] (pH 7.4, 36°C, day 6) is recorded as 4.4%; in series [4] (pH 7.4, 36°C, day 7), 5.3%; in series [4] (pH 8.0, 36°C, day 0), 0.0%; in series [4] (pH 8.0, 36°C, day 1) it was 2.3%; in series [4] (pH 8.0, 36°C, day 2), 4.2%; in series [4] (pH 8.0, 36°C, day 3), 7.7%. In addition, the drug dissociation ratio came out at 10.3% in series [4] (pH 8.0, 36°C, day 4); 12.8% in series [4] (pH 8.0, 36°C, day 5); 14.0% in series [4] (pH 8.0, 36°C, day 6); 17.5% in series [4] (pH 8.0, 36°C, day 7). For the same compound, the eosinophil-inhibiting activity result in series [5] (0.35 mg/kg (0.1 mg/kg in budesonide amount), 1 week after the administration) is given as “eosinophil-inhibiting activity was shown”. Besides, in series [5] (0.35, 3.5 and 35 mg/kg), the “dose responsiveness of eosinophil-inhibiting activity” value is reported as “observed with dose responsiveness”. Also, the “inhibition of enhanced sensitivity to MCh (airway hyper responsiveness, PC100)” value in series [6] is given as “inhibited to the level of the control group”.
